For 14 molecules, binding result and EC50 results are on record in patent US20140356358A1 (Amgen, published 2014).

Like-named read-outs stand apart in the source and are kept apart here.

Assay [1] concerns the target T1, human neonatal Fc receptor (hFcRn) (human, UniProt P55899 24-290; P61769 21-119).
T1 construct: Biotinylated in the ELISA, Octet and yeast assays; also called human FcRn; huFcRn
The assay can be described thus: BLI (Octet), association pH 6, dissociation pH 7.4. From the text: To further characterize some of the variant Fc-fragments identified by the phage ELISA, binding of the variant Fc-fragments to FcRn at pH 6 and 7.4 was characterized for a subset of the identified variant Fc-fragments. DNA encoding selected variant Fc-fragment isolates, all from library L5, was introduced into a mammalian expression vector, which was used to transfect 293 6E cells using deacylated PEI essentially as described by Thomas et al. (Proc. Natl. Acad. Sci. 102(16): 5679-5684, 2005), the relevant portions of which are incorporated herein by reference. […] Concentrations were calculated using a standard curve created with a purified Fc fusion protein.
Biotinylated hFcRn at 100 nM was captured on streptavidin (SA) biosensors (ForteBio Inc., 18-5019) off-line at RT for 2 hours. Using these biotinylated hFcRn-coated SA biosensors in the Octet Red® system, association and dissociation of unlabeled proteins can be detected in real time via […] of light. […] Three association and dissociation conditions were set up: (1) association at pH 6 and dissociation at pH 6; (2) association at pH 6 and dissociation at pH 7.4; and (3) association at pH 7.4 and dissociation at pH 7.4. SA biosensors coated with biotinylated hFcRN were dipped into buffer at a specific pH for 1 min and then soaked in the samples containing variant Fc-fragments or controls at a specific pH for 5 min to allow binding to FcRn. The Fc biosensors were then soaked in buffer at a specific pH for 5 minutes more to allow the bound Fc-fragments to dissociate from FcRn. Detection of binding and dissociation of the Fc-fragments was possible through the use of bio-layer interferometry as implemented using the Octet Red® system, so that binding and dissociation were detected in real time.

Assay [2] deals with T2, cynomolgus monkey FcRn (cynomolgus monkey, UniProt Q8SPV9 24-297; Q8SPW0 21-119, limits assumed).
T2 construct: also called Cynomolgus FcRn
The assay can be described thus: SPR competition pH 5.5.

The target in assay [3] is T1, human neonatal Fc receptor (hFcRn). The assay can be described thus: SPR competition pH 5.5.
For assay [4], the target named is T2, cynomolgus monkey FcRn. The assay can be described thus: SPR competition pH 7.4.
For assay [5], the target named is T2, cynomolgus monkey FcRn. The assay can be described thus: SPR competition pH 5.5. As to the method: (§1) Binding of variant Fc-fragments to human and cynomolgus monkey FcRn was tested using a BIAcore® T100 analysis system (GE Healthcare Bio-Sciences AB Private Limited Liability Company, Uppsala, Sweden) at both pH 5.5 and pH 7.4. The test consisted of incubating various concentrations of the variant Fc-fragments or control Fc-fragments with a fixed amount of human or cynomolgus monkey FcRn under binding conditions and subsequently measuring the amount of free, unbound FcRn in these mixtures by binding to a surface (in a flow cell of a CM5 (Biacore) chip) on which an Fc-fragment was immobilized. […] Thus, the amount of unbound FcRn in the mixture was quantitatively ascertained by surface plasmon resonance through use of the BIAcore® T100 analysis system. […] Initially, a group of 23 variant-Fc-fragments (Fc-5-1 being considered a control) identified in the experiments described above were tested for binding to human FcRn.
(§2) To obtain a reasonable signal for the different molecules and conditions tested, different assay conditions were used. For assays at pH 5.5, 10 nM of human or cynomolgus monkey FcRn was mixed with serial dilutions of the variant and control Fc-fragments being tested (which ranged from 0.1˜2,000 nM) and incubated for 1 hour at room temperature in 10 mM sodium acetate, pH 5.5, 150 mM NaCl, 0.005% P20, 0.1 mg/mL BSA. As positive controls, […] human and cynomolgus monkey FcRn were each incubated in the same solution, for the same time, and at the same temperature described immediately above, but without an added Fc-fragment.
The source holds these as a separate data set.

Assay [6] has as its target T1, human neonatal Fc receptor (hFcRn). The assay can be described thus: SPR competition pH 5.5. As to the method: as §1, §2
The source holds these as a separate data set.

T2 sequence (Q8SPV9 24-297 limits assumed, chain 1 of 2): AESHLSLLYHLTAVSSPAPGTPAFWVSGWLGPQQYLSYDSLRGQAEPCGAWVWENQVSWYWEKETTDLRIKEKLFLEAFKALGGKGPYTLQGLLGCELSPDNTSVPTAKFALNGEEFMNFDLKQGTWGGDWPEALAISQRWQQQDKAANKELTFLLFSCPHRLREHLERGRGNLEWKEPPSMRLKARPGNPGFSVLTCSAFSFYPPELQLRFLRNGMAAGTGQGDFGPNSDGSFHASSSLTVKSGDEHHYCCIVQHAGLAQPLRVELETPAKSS
T2 sequence (Q8SPW0 21-119 limits assumed, chain 2 of 2): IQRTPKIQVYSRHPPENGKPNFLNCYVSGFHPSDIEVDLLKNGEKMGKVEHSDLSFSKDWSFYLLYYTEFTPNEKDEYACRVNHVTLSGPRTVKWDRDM
T1 sequence (P55899 24-290 limits assumed, chain 1 of 2): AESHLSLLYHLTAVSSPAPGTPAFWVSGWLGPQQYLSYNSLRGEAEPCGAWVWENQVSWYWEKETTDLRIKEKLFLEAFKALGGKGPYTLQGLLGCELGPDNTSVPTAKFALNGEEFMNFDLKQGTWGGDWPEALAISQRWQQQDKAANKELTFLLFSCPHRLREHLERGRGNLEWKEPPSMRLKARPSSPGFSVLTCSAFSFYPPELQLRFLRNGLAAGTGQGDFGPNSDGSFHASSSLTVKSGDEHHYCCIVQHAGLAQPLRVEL
T1 sequence (P61769 21-119 limits assumed, chain 2 of 2): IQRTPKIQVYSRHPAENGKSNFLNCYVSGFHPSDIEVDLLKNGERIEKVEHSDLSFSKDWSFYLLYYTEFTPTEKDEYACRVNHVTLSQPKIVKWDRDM

B1: variant Fc-fragment 5-1-2 (other)
chain: EPKSCDKTHTCPPCPAPELLGGPSVFLFPPKPKDTLMISRTPEVTCVVVDVSHEDPEVKFNWYVDGVEVHNAKTKPREEQYNSTYRVVSVLTVLHQDWLNGKEYKCKVSNKALPAPIEKTISKAKGQPREPQVYTLPPSRDELTKNQVSLTCLVKGFYPSDIAVEWESGGCGMPIEFCGGNGQPENNYKTTPPVLDSDGSFFLYSKLTVDKSRWQQGNVFSCSVMHEALHNHYTQKSLSLSPGK
Regarding B1, the binding result in assay [1] is “binds”.

B2: variant Fc-fragment Fc-5-106-M4I (other)
chain: EPKSCDKTHTCPPCPAPELLGGPSVFLFPPKPKDTLMISRTPEVTCVVVDVSHEDPEVKFNWYVDGVEVHNAKTKPREEQYNSTYRVVSVLTVLHQDWLNGKEYKCKVSNKALPAPIEKTISKAKGQPREPQVYTLPPSRDELTKNQVSLTCLVKGFYPSDIAVEWESNGGCVFNIFNCGGGQPENNYKTTPPVLDSDGSFFLYSKLTVDKSRWQQGNVFSCSVMHEALHNHYTQKSLSLSPGK
One may read the EC50 as the midpoint of the concentration-response curve. Regarding B2, the 50% effective concentration (EC50) came to 3.2 nM with cynomolgus monkey FcRn [2], 2.6 nM in assay [3] and 970 nM with cynomolgus monkey FcRn [4].

B3: variant Fc-fragment Fc-5-106-M4V (other)
chain: EPKSCDKTHTCPPCPAPELLGGPSVFLFPPKPKDTLMISRTPEVTCVVVDVSHEDPEVKFNWYVDGVEVHNAKTKPREEQYNSTYRVVSVLTVLHQDWLNGKEYKCKVSNKALPAPIEKTISKAKGQPREPQVYTLPPSRDELTKNQVSLTCLVKGFYPSDIAVEWESNGGCVFNVFNCGGGQPENNYKTTPPVLDSDGSFFLYSKLTVDKSRWQQGNVFSCSVMHEALHNHYTQKSLSLSPGK
As to B3, the EC50 in the assay with cynomolgus monkey FcRn [2] is 5 nM; in assay [3], 6.2 nM.

B4: variant Fc-fragment Fc-5-106 (other)
chain: EPKSCDKTHTCPPCPAPELLGGPSVFLFPPKPKDTLMISRTPEVTCVVVDVSHEDPEVKFNWYVDGVEVHNAKTKPREEQYNSTYRVVSVLTVLHQDWLNGKEYKCKVSNKALPAPIEKTISKAKGQPREPQVYTLPPSRDELTKNQVSLTCLVKGFYPSDIAVEWESNGGCVFNMFNCGGGQPENNYKTTPPVLDSDGSFFLYSKLTVDKSRWQQGNVFSCSVMHEALHNHYTQKSLSLSPGK
notes: soluble elsewhere
With B4, the EC50 with cynomolgus monkey FcRn [2] worked out at 4.6 nM; in assay [3] it was 5.4 nM; with cynomolgus monkey FcRn [5], 3.6 nM; in assay [6] it was 5.3 nM.

B5: variant Fc-fragment 5-1-4 (other)
chain: EPKSCDKTHTCPPCPAPELLGGPSVFLFPPKPKDTLMISRTPEVTCVVVDVSHEDPEVKFNWYVDGVEVHNAKTKPREEQYNSTYRVVSVLTVLHQDWLNGKEYKCKVSNKALPAPIEKTISKAKGQPREPQVYTLPPSRDELTKNQVSLTCLVKGFYPSDIAVEWESNGQGGCGMPIEFCGGPENNYKTTPPVLDSDGSFFLYSKLTVDKSRWQQGNVFSCSVMHEALHNHYTQKSLSLSPGK
For the molecule B5, in assay [1], the binding result was “binds”.

B6: variant Fc-fragment 5-1-3 (other)
chain: EPKSCDKTHTCPPCPAPELLGGPSVFLFPPKPKDTLMISRTPEVTCVVVDVSHEDPEVKFNWYVDGVEVHNAKTKPREEQYNSTYRVVSVLTVLHQDWLNGKEYKCKVSNKALPAPIEKTISKAKGQPREPQVYTLPPSRDELTKNQVSLTCLVKGFYPSDIAVEWESNGGGCGMPIEFCGGQPENNYKTTPPVLDSDGSFFLYSKLTVDKSRWQQGNVFSCSVMHEALHNHYTQKSLSLSPGK
Turning to B6, in assay [1], the binding result was “binds”.

B7: variant Fc-fragment Fc-5-106-M4T (other)
chain: EPKSCDKTHTCPPCPAPELLGGPSVFLFPPKPKDTLMISRTPEVTCVVVDVSHEDPEVKFNWYVDGVEVHNAKTKPREEQYNSTYRVVSVLTVLHQDWLNGKEYKCKVSNKALPAPIEKTISKAKGQPREPQVYTLPPSRDELTKNQVSLTCLVKGFYPSDIAVEWESNGGCVFNTFNCGGGQPENNYKTTPPVLDSDGSFFLYSKLTVDKSRWQQGNVFSCSVMHEALHNHYTQKSLSLSPGK
As to B7, the EC50 in the assay with cynomolgus monkey FcRn [2] was 8.3 nM; in assay [3], 10 nM.

B8: variant Fc-fragment 5-1-5 (other)
chain: EPKSCDKTHTCPPCPAPELLGGPSVFLFPPKPKDTLMISRTPEVTCVVVDVSHEDPEVKFNWYVDGVEVHNAKTKPREEQYNSTYRVVSVLTVLHQDWLNGKEYKCKVSNKALPAPIEKTISKAKGQPREPQVYTLPPSRDELTKNQVSLTCLVKGFYPSDIAVEWESNGQPGGCGMPIEFCGGENNYKTTPPVLDSDGSFFLYSKLTVDKSRWQQGNVFSCSVMHEALHNHYTQKSLSLSPGK
Turning to B8, the binding result in assay [1] is listed as “binds”.

B9: variant Fc-fragment 5-1-10 (other)
chain: EPKSCDKTHTCPPCPAPELLGGPSVFLFPPKPKDTLMISRTPEVTCVVVDVSHEDPEVKFNWYVDGVEVHNAKTKPREEQYNSTYRVVSVLTVLHQDWLNGKEYKCKVSNKALPAPIEKTISKAKGQPREPQVYTLPPSRDELTKNQVSLTCLVKGFYPSDIAVEWESGGGCGMPIEFCGGGPENNYKTTPPVLDSDGSFFLYSKLTVDKSRWQQGNVFSCSVMHEALHNHYTQKSLSLSPGK
In the case of B9, the binding result in assay [1] is listed as “binds”.

B10: variant Fc-fragment 5-1-6 (other)
chain: EPKSCDKTHTCPPCPAPELLGGPSVFLFPPKPKDTLMISRTPEVTCVVVDVSHEDPEVKFNWYVDGVEVHNAKTKPREEQYNSTYRVVSVLTVLHQDWLNGKEYKCKVSNKALPAPIEKTISKAKGQPREPQVYTLPPSRDELTKNQVSLTCLVKGFYPSDIAVEWESNGQPEGGCGMPIEFCGGNNYKTTPPVLDSDGSFFLYSKLTVDKSRWQQGNVFSCSVMHEALHNHYTQKSLSLSPGK
B10: the binding result in assay [1] is “binds”.

B11: variant Fc-fragment 5-1-9 (other)
chain: EPKSCDKTHTCPPCPAPELLGGPSVFLFPPKPKDTLMISRTPEVTCVVVDVSHEDPEVKFNWYVDGVEVHNAKTKPREEQYNSTYRVVSVLTVLHQDWLNGKEYKCKVSNKALPAPIEKTISKAKGQPREPQVYTLPPSRDELTKNQVSLTCLVKGFYPSDIAVEWESGGCGMPIEFCGGPENNYKTTPPVLDSDGSFFLYSKLTVDKSRWQQGNVFSCSVMHEALHNHYTQKSLSLSPGK
Take B11: the binding result in assay [1] is given as “binds”.

B12: variant Fc-fragment 5-1-1 (other)
chain: EPKSCDKTHTCPPCPAPELLGGPSVFLFPPKPKDTLMISRTPEVTCVVVDVSHEDPEVKFNWYVDGVEVHNAKTKPREEQYNSTYRVVSVLTVLHQDWLNGKEYKCKVSNKALPAPIEKTISKAKGQPREPQVYTLPPSRDELTKNQVSLTCLVKGFYPSDIAVEWEGGCGMPIEFCGGSNGQPENNYKTTPPVLDSDGSFFLYSKLTVDKSRWQQGNVFSCSVMHEALHNHYTQKSLSLSPGK
For the molecule B12, the binding result in assay [1] is listed as “binds”.

B13: variant Fc-fragment 5-1-7 (other)
chain: EPKSCDKTHTCPPCPAPELLGGPSVFLFPPKPKDTLMISRTPEVTCVVVDVSHEDPEVKFNWYVDGVEVHNAKTKPREEQYNSTYRVVSVLTVLHQDWLNGKEYKCKVSNKALPAPIEKTISKAKGQPREPQVYTLPPSRDELTKNQVSLTCLVKGFYPSDIAVEWESNGQPENGGCGMPIEFCGGNYKTTPPVLDSDGSFFLYSKLTVDKSRWQQGNVFSCSVMHEALHNHYTQKSLSLSPGK
Turning to B13, the binding result in assay [1] is “binds”.

B14: variant Fc-fragment 5-1-8 (other)
chain: EPKSCDKTHTCPPCPAPELLGGPSVFLFPPKPKDTLMISRTPEVTCVVVDVSHEDPEVKFNWYVDGVEVHNAKTKPREEQYNSTYRVVSVLTVLHQDWLNGKEYKCKVSNKALPAPIEKTISKAKGQPREPQVYTLPPSRDELTKNQVSLTCLVKGFYPSDIAVEWESNGQPENNGGCGMPIEFCGGYKTTPPVLDSDGSFFLYSKLTVDKSRWQQGNVFSCSVMHEALHNHYTQKSLSLSPGK
As to B14, the binding result in assay [1] is “binds”.
